The series deals with Δ22GraT in Δ22GraT2A2 complex;GraA-His in Δ22GraT2A2 complex (Pseudomonas putida;Pseudomonas putida, UniProt Q88MI5;Q88MI6 23-92;1-99, del2-22|). In words: ITC; macroscopic; ITC: 50 mM Tris pH 8.0, 250 mM NaCl, 2 mM β-mercaptoethanol (TCEP in purification for ITC), 25 °C; EMSA: 5 µM DNA, 30 min at room temperature, 6% native PAGE in TBE on ice. The following applies: protein: recombinant;recombinant; tags: ;C-terminal His6; chain copies: 2;2.

B1: graTA operator wild type 33 bp (dsDNA)
DNA 1: AAATTAACGAATAACGTTAAGCATTCAGCTCAT
DNA 2: ATGAGCTGAATGCTTAACGTTATTCGTTAATTT
With B1, the Ka was found to be 2.3e+15 M^-2.
